Bridge positions count the residues as written; N and C are the ends.
T1: Ubiquitin carboxyl-terminal hydrolase 2, O75604
T1 chain: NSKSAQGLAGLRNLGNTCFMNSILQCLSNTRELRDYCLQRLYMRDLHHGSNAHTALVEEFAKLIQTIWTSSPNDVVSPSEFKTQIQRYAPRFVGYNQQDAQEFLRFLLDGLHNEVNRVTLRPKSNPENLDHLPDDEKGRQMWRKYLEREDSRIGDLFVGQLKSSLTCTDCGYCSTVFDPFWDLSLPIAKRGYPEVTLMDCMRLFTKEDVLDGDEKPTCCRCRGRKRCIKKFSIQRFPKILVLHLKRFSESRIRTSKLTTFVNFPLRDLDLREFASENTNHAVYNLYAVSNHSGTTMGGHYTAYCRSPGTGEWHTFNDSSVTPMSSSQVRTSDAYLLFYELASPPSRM

T2: Caspase-8, Q14790
T2 chain: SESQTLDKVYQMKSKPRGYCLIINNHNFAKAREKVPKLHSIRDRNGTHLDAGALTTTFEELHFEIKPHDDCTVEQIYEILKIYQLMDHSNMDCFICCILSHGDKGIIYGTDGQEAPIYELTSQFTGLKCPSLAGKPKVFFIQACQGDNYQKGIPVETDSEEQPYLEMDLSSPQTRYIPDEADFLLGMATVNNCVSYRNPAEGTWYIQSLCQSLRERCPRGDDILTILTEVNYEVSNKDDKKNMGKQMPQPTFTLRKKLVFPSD

T3: Matrix metalloprotease 1, P03956
T3 chain: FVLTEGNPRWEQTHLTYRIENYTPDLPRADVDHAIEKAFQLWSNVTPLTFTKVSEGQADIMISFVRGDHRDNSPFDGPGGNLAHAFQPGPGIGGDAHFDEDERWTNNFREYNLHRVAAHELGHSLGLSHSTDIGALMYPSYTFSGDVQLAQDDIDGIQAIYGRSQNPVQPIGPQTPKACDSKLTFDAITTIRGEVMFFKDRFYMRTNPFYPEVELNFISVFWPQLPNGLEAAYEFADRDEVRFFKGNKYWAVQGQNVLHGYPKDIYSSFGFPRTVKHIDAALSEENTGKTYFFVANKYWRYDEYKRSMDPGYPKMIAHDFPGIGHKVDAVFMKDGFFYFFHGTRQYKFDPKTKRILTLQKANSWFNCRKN

T4: Cathepsin F, Q9UBX1
T4 chain: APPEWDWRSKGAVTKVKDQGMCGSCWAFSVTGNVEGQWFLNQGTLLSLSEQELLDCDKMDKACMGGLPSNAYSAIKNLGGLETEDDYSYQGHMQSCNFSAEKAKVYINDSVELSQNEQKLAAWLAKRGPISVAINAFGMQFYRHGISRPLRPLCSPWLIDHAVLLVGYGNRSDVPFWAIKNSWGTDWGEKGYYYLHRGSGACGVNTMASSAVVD


Columns and labels:
Experiment in all cases: cell-based or functional assay
Beta secretase, P56817 = target: Beta secretase, P56817
Beta secretase, P56817, sequence (P56817 22-457 limits assumed): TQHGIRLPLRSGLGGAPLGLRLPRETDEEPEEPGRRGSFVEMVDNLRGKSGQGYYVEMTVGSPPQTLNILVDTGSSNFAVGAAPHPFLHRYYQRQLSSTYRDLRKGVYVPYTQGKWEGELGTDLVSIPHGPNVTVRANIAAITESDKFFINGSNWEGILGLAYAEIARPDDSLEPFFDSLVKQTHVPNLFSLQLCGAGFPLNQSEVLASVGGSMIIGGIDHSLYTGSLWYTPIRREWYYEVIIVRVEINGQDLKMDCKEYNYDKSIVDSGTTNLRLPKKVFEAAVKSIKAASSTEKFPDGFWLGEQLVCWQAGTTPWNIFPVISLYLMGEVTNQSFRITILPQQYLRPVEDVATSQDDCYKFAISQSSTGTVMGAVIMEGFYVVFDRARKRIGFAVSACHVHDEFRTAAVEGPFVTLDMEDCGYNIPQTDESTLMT

[1] = target: T1, Ubiquitin carboxyl-terminal hydrolase …
Caspase-8, Q14790 = target: T2, Caspase-8, Q14790
DPP8, Q6V1X1 = target: DPP8, Q6V1X1
DPP8, Q6V1X1, sequence (Q6V1X1 whole entry): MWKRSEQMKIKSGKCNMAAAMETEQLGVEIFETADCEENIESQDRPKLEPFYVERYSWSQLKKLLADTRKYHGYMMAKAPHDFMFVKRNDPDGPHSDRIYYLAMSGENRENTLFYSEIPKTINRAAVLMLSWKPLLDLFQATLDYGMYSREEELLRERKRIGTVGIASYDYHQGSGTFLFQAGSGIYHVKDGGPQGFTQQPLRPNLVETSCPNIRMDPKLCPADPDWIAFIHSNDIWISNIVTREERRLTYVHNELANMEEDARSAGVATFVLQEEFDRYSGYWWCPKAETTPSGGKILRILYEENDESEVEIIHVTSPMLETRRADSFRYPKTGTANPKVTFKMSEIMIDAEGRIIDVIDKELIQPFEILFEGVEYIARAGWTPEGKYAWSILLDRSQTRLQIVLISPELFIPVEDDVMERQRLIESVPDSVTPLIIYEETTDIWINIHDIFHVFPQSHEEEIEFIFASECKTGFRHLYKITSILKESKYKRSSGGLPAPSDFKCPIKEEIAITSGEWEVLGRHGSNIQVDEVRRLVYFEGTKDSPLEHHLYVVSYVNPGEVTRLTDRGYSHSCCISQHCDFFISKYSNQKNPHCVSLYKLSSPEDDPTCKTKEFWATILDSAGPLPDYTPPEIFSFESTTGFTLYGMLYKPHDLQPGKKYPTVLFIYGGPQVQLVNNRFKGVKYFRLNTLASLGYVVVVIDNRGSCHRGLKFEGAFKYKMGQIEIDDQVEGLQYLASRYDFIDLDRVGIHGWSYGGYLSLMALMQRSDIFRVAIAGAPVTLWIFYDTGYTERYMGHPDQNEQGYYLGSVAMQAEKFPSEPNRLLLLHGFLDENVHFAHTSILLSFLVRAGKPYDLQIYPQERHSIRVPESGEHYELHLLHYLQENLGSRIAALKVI

[2] = target: T3, Matrix metalloprotease 1, P03956
Cathepsin B, P07858 = target: Cathepsin B, P07858
Cathepsin F, Q9UBX1 = target: T4, Cathepsin F, Q9UBX1
DPP7, Q9UHL4 = target: DPP7, Q9UHL4
[3] = target: FAP (protease specificity screen, BPS Biosciences), Q12884
FAP (protease specificity screen, BPS Biosciences), Q12884, sequence (Q12884 27-760 limits assumed): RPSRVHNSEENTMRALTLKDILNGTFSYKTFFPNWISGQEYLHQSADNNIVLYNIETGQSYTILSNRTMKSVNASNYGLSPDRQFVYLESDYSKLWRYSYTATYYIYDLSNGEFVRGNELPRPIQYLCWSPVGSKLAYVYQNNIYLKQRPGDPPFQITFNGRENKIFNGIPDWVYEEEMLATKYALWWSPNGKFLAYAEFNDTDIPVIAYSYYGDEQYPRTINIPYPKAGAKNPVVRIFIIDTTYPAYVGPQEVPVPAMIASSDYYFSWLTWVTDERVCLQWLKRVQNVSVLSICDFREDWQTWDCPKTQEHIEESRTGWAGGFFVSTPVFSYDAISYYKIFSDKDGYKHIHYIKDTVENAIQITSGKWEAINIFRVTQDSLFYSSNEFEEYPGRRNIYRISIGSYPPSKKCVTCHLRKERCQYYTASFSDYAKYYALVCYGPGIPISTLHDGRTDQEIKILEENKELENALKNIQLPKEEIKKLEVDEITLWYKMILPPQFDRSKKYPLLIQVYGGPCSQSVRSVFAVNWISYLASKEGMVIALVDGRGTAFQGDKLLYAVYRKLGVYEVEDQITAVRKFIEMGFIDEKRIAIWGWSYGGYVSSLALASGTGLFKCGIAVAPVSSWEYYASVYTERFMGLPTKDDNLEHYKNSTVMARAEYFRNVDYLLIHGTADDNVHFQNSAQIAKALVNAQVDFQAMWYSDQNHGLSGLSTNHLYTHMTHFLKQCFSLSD

[4] = target: Activated Protein C, P04070
[5] = target: Lek kinase (h) (human), P06239
Lek kinase (h) (human), P06239, sequence (P06239 whole entry): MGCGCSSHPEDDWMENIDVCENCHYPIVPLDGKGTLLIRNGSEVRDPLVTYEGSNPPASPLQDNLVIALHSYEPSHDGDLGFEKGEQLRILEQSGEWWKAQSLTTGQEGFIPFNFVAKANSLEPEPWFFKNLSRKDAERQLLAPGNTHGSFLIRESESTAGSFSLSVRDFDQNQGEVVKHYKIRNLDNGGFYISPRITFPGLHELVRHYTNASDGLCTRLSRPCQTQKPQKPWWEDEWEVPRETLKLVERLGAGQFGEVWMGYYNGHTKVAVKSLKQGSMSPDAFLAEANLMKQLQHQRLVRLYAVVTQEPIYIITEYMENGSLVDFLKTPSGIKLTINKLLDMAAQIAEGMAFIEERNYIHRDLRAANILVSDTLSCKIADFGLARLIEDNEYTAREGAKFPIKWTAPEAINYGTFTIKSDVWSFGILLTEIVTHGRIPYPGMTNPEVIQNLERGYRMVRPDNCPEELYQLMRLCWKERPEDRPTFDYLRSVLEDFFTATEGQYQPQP

Cathepsin S, P25774 = target: Cathepsin S, P25774
Cathepsin S, P25774, sequence (P25774 115-331 limits assumed): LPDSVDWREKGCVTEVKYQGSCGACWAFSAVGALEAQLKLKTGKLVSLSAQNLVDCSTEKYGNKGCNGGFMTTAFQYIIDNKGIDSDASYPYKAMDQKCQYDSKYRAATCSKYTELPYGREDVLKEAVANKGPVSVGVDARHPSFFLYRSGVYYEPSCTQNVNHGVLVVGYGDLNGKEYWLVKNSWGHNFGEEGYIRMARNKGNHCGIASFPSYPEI

[6] = target: Ubiquitin carboxyl-terminal hydrolase 10, Q14694
Ubiquitin carboxyl-terminal hydrolase 10, Q14694, sequence (Q14694 whole entry): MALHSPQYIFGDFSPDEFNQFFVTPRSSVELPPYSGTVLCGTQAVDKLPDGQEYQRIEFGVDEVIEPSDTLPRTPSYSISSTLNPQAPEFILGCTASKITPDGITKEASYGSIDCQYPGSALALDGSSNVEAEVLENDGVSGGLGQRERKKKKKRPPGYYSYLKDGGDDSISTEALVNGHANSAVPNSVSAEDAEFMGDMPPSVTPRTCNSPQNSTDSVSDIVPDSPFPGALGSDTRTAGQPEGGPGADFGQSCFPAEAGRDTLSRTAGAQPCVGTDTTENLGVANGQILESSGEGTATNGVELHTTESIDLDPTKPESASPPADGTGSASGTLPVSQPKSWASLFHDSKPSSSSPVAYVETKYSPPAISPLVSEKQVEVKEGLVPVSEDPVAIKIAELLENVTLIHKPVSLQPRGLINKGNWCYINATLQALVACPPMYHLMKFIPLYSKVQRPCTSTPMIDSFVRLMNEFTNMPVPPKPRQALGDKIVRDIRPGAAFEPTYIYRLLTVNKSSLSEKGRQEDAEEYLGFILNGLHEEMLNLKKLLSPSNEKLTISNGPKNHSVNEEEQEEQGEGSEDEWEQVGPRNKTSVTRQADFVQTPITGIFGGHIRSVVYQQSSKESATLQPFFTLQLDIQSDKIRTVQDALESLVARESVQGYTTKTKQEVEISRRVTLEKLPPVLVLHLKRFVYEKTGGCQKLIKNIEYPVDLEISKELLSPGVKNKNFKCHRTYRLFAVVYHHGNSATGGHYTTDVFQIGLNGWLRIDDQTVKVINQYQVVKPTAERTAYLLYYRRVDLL

Binder	Percentage inhibition (%) at 1 µM (Beta secretase, P56817) [%]	Percentage inhibition (%) at 10 µM (Beta secretase, P56817) [%]	Percentage inhibition (%) at 1 µM [1] [%]	Percentage inhibition (%) at 10 µM [1] [%]	Percentage inhibition (%) at 1 µM (Caspase-8, Q14790) [%]	Percentage inhibition (%) at 10 µM (Caspase-8, Q14790) [%]	Percentage inhibition (%) at 1 µM (DPP8, Q6V1X1) [%]	Percentage inhibition (%) at 10 µM (DPP8, Q6V1X1) [%]	Percentage inhibition (%) at 1 µM [2] [%]	Percentage inhibition (%) at 10 µM [2] [%]	Percentage inhibition (%) at 1 µM (Cathepsin B, P07858) [%]	Percentage inhibition (%) at 10 µM (Cathepsin B, P07858) [%]	Percentage inhibition (%) at 1 µM (Cathepsin F, Q9UBX1) [%]	Percentage inhibition (%) at 10 µM (Cathepsin F, Q9UBX1) [%]	Percentage inhibition (%) at 1 µM (DPP7, Q9UHL4) [%]	Percentage inhibition (%) at 10 µM (DPP7, Q9UHL4) [%]	Percentage inhibition (%) at 1 µM [3] [%]	Percentage inhibition (%) at 10 µM [3] [%]	Percentage inhibition (%) at 1 µM [4] [%]	Percentage inhibition (%) at 10 µM [4] [%]	other results
Hex-CPPTQFC-OH (bridge 1-7; not fully specified (bridges); printed as Hex-[Cys(tMeBn(DOTA-AET))-Pro-Pro-Thr-Gln-Phe-Cys]-OH) [Hex-[Cys(tMeBn(DOTA-AET))-Pro-Pro-Thr-Gln-Phe-Cys]-OH]	1	7	0	-1	0	-3	1	11	1	-7	1	2	-23	-25	-1	-7	97	99	-11	1	% inhibition of control enzyme activity, compound at 10 µM [5]: -4%; Percentage inhibition (%) at 1 µM (Cathepsin S, P25774): -10%; Percentage inhibition (%) at 10 µM (Cathepsin S, P25774): -23%; Percentage inhibition (%) at 1 µM [6]: 1%; Percentage inhibition (%) at 10 µM [6]: -1%
Hex-CPPTQFCD-NH2 (bridge 1-7; not fully specified (bridges); printed as Hex-[Cys(tMeBn(DOTA-PP))-Pro-Pro-Thr-Gln-Phe-Cys]-Asp-NH2) [Hex-[Cys(tMeBn(DOTA-PP))-Pro-Pro-Thr-Gln-Phe-Cys]-Asp-NH2]	-8	-5	3	7	0	0	1	5	-1	2	26	36	-3	-24	2	-3	98	99	5	8	% inhibition of control enzyme activity, compound at 10 µM [5]: 10%; Percentage inhibition (%) at 1 µM (Cathepsin S, P25774): 3%; Percentage inhibition (%) at 10 µM (Cathepsin S, P25774): 18%; Percentage inhibition (%) at 1 µM [6]: -2%; Percentage inhibition (%) at 10 µM [6]: 5%
